In patent publication US20190322984A1 (MUSC FOUNDATION FOR RESEARCH DEVELOPMENT, published 2019):

Molecular target: T1, mouse IL-2Rα on mouse effector CD8+ T cells (mouse, UniProt P01590 22-268)
T1 construct: whole, on cells; also called mIL-2Rα; CD25
T1 sequence (looked up): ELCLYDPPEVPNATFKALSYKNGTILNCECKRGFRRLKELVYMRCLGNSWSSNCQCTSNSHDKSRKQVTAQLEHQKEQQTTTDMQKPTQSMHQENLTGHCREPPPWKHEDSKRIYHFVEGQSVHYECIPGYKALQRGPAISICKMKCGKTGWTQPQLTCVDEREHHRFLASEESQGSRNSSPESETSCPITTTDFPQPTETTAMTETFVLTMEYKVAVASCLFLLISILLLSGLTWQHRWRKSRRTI
Assay: flow cytometry, surface IL-2 staining of mIL-2-pulsed polyclonal effector CD8+ T cells
Description: FIGS. 3a-3g—IL-2Rα facilitates sustained IL-2 signaling through creation of an extracellular reservoir and recycling. (a) Presence of IL-2 on the surface of polyclonal T cells depends on IL-2Rα. Polyclonal effector CD8⁺ T cells were pulsed for 2 hours with or without mIL-2. Prior to (and during) the pulse, T cells were incubated with anti-IL-2Rα mAb (PC61). Cells were then washed and stained for surface IL-2. (b) Time course of surface IL-2 on polyclonal T cells after reculture at 37° C. (c) Levels of pSTAT5 in Tc1 cells that were pulsed with IL-2, washed, and recultured at 37° C. with or without anti-IL-2 mAb (clone S4B6 or 1A12). (d) Recycling of IL-2 on effector T cells. Pmel-1 Tc1 cells were incubated with hIL-2 or mIL-2 at 37° C. for 2 hours. As indicated, cells were then acid washed and recultured at 37° C. for 90 minutes in the presence of anti-hIL-2 mAb conjugated to Alexa647. Cells were then washed, fixed, and assayed by flow cytometry. (e) Recycling of IL-2 on pulsed cells while mixed with non-pulsed cells. Pmel-1 Tc1 cells were pulsed with hIL-2 at either 4° C. or 37° C. for 2 hours, and then acid washed. Cells were then mixed with non-pulsed CFSE-labeled Tc1 cells. The mixed cells were recultured at 37° C. for 45 minutes in the presence of anti-hIL-2 mAb conjugated to Alexa647. Cells were then washed, fixed, and assayed by flow cytometry. […]

B1: Mouse (m) IL-2 (ligand, UniProt P04351 21-169, looked up)
chain: APTSSSTSSSTAEAQQQQQQQQQQQQHLEQLLMDLQELLSRMENYRNLKLPRMLTFKFYLPKQATELKDLQCLEDELGPLRHVLDLTQSKSFQLEDAENFISNIRVTVVKLKGSDNTFECQFDDESATVVDFLRRWIAFCQSIISTSPQ
notes: Bought recombinant cytokine; used at 200 ng/ml in pulse assays; also called mouse IL-2
- binding result: binds
